In patent publication US20100151496A1:

Molecular target: TRAP-220-EA-Nuc fusion protein
Assay: cell-based or functional assay

EC50 of the small-molecule inverse agonist XCT790 for loss of the β-galactosidase complementation signal (ERRα fusion with coactivator-EA fusion) in CHO cells: 300 nM
S/B (signal/background) of β-galactosidase enzyme fragment complementation in CHO cells; loss of signal with the inverse agonist XCT790: 3 fold
Substance: ERRα (estrogen-related receptor α) fused to the small β-galactosidase fragment (NHR-PK fusion), expressed in CHO cells
